Measurements as given in patent US20100167390, “Novel Oligonucleotide and NF-kB Decoy Comprising the Same” (published 2010).

T1: NF-kB p52 (NFKB2) (UniProt Q00653 Q00653:1-454)
T1 sequence: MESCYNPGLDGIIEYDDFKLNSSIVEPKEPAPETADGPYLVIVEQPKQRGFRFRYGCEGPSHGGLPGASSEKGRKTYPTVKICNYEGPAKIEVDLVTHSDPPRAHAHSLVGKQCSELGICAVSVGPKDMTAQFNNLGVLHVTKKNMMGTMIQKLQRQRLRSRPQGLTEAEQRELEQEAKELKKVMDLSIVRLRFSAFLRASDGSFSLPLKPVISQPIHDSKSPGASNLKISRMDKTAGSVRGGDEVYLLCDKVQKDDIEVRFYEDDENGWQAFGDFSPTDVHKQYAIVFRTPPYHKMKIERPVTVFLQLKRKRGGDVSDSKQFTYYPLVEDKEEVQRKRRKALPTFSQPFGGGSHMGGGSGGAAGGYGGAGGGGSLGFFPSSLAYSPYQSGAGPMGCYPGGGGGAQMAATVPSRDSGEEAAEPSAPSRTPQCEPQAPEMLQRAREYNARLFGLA


What was measured:
[1] = molecular target: T2, NF-kB p65 (RelA) (UniProt Q04206 Q04206:1-551); assay: competition; primary screen 1.61; settings: protein: extract; tags: TPA and CI-stimulated Jurkat nuclear extract, Active Motif TransAM kit
T2 sequence (Q04206 whole entry, one chain of several): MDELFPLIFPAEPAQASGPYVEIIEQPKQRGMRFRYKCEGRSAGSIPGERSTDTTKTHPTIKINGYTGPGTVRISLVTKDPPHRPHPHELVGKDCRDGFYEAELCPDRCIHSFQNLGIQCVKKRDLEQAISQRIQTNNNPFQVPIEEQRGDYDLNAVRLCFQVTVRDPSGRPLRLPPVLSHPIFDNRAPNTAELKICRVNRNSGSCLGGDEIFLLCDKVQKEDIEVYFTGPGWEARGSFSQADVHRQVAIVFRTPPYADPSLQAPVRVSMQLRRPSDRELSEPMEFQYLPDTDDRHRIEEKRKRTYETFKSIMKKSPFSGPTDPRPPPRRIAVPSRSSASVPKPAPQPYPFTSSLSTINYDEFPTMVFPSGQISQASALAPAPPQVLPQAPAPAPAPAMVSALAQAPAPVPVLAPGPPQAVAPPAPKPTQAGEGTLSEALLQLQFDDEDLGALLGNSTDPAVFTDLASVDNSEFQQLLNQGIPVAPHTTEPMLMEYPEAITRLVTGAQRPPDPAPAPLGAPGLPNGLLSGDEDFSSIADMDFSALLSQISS
Description: (§1) The measurement was performed in accordance with the instructions attached to the kit. The kit was made for quantifying the NF-κB bound to the solid phase by ELISA after adding an NF-κB solution to the wells in which the NF-κB (p65 protein) consensus binding sequence was immobilized and after washing the resultant. By this measurement method, the higher the binding capacity of the oligonucleotide to the NF-κB, the smaller amount of the NF-κB quantified by the ELISA.
(§2) More concretely, the above-described measurement was carried out as follows concretely: Each SODN solution was serially diluted with Complete Binding Buffer contained in the kit to prepare test samples (common ratio: 3-fold, 4 times, n=3). […] After allowing coloration for 10 minutes, the Stop Solution was added to stop the reaction, and the absorbances at 450 nm and 630 nm were measured.
(§3) The absorbance at 630 nm was subtracted from the absorbance at 450 nm and the mean value of the blanks was further subtracted from the resultant, and the percentage of the mean value of each concentration based on the mean value of the controls was calculated. The concentration at which the calculated value was 50% (i.e., at which the binding was inhibited by 50%) was calculated from the regression lines between two points interposing 50% (an analysis software Graph Pad PRISM 4, GraphPad SOFTWARE was used). […]

[2] = molecular target: T1, NF-kB p52 (NFKB2); assay: competition; settings: protein: extract; tags: Raji nuclear extract, Active Motif
Description: (§4) The study was carried out in basically the same manner as in the above-described primary screening. The activities to inhibit the binding of various NF-κB family proteins to the consensus NF-κB binding site were compared under the conditions of common ratio of 3-fold, 6 times, n=2. As a control for comparison, fully phosphorothioated decoy oligonucleotide […] (SEQ ID NO:103) was used. The binding inhibition tests against various NF-κB family proteins were conducted using NF-κB Family TransAM Kit (ACTIVE MOTIF), and using NF-κB molecules in the Jurkat, TPA and CI-Stimulated, Nuclear Extract (ACTIVE MOTIF) for p50, and using NF-κB molecules in the Raji nuclear extract (ACTIVE MOTIF) for Rel-B and p52. As the primary antibodies, anti-NF-κB p50 antibody, anti-NF-κB p52 antibody and anti-Rel-B antibody were used, respectively, and the secondary antibody was HRP-labeled anti-rabbit IgG antibody in all cases.
(§5) More concretely, the above-described measurements were carried out as follows: Each oligonucleotide solution was serially diluted with Complete Binding Buffer to prepare test samples. Each of the test samples was added to the wells in an amount of 30 μL per well, and Complete Binding Buffer was added to the wells of the control and blank. Nuclear extract diluted with Complete Lysis Buffer was added to the wells in an amount of 20 μL per well, and Complete Lysis Buffer was added to the wells of blank. After incubation for 1 hour with shaking, each well was washed with 1× Wash Buffer, and the primary antibody was added, followed by incubation for 1 hour. Each well was washed with 1× Wash Buffer, and the secondary antibody was added, followed by incubation for 1 hour. Each well was washed with 1× Wash Buffer, and the Developing Solution was added. After allowing coloration for 10 minutes, the Stop Solution was added to stop the reaction, and the absorbances at 450 nm and 630 nm were measured.
(§6) The absorbance at 630 nm was subtracted from the absorbance at 450 nm and the mean value of the blanks was further subtracted from the resultant, and the percentage of the mean value of each concentration based on the mean value of the controls was calculated.

[3] = molecular target: NF-kB p50 (NFKB1) (UniProt P19838 P19838:1-433); assay: competition; settings: protein: extract; tags: TPA and CI-stimulated Jurkat nuclear extract, Active Motif
NF-kB p50 (NFKB1), sequence (P19838 1-433, one chain of several): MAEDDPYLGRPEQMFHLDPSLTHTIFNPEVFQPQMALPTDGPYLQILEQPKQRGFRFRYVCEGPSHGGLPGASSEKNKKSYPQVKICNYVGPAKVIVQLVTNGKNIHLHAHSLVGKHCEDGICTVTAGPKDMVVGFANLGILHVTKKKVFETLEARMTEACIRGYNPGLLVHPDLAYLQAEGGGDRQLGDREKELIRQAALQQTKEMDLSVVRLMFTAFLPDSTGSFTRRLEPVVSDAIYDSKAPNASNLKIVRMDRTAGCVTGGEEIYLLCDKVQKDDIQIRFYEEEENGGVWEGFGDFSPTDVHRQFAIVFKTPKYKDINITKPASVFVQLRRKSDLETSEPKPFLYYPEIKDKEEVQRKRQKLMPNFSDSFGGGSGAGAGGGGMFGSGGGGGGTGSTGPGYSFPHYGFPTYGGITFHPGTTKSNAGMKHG
Description: as §4, §5, §6

[4] = molecular target: T2, NF-kB p65 (RelA); assay: competition; settings: protein: extract; tags: TPA and CI-stimulated Jurkat nuclear extract, Active Motif TransAM kit
Description: The binding capacity of each SODN to NF-κB was evaluated by measuring the remaining free NF-κB after reacting each SODN with NF-κB (p65), using a commercially available kit (TransAM Kit (NF-κB, p65, ACTIVE MOTIF) for measuring NF-κB, and using NF-κB molecules in the Jurkat, TPA and CI-Stimulated, Nuclear Extract (nuclear extract of Jurkat cells stimulated with a phorbol ester (TPA) and a calcium ionophore (CI)). The measurement was performed in accordance with the instructions attached to the kit. The kit was made for quantifying the NF-κB bound to the solid phase by ELISA after adding an NF-κB solution to the wells in which the NF-κB (p65 protein) consensus binding sequence was immobilized and after washing the resultant. By this measurement method, the higher the binding capacity of the oligonucleotide to the NF-κB, the smaller amount of the NF-κB quantified by the ELISA.
More concretely, the above-described measurement was carried out as follows concretely: Each SODN solution was serially diluted with Complete Binding Buffer contained in the kit to prepare test samples (common ratio: 3-fold, 4 times, n=3). To each well, 30 μL of the test sample was added. To the wells of the control and blank, Complete Binding Buffer was added. To each well, 20 μL of the Jurkat, TPA and CI-Stimulated, Nuclear Extract contained in the kit, after dilution with Complete Lysis Buffer to a concentration of 125 μg/mL, was added. To the wells of the blank, Complete Lysis Buffer was added. After incubation for 1 hour with shaking, each well was washed with 1× Wash Buffer contained in the kit, and an anti-NF-κB (p65 protein) antibody was added, followed by incubation for 1 hour. Each well was washed with 1× Wash Buffer, and the Developing Solution contained in the kit was added. After allowing coloration for 10 minutes, the Stop Solution was added to stop the reaction, and the absorbances at 450 nm and 630 nm were measured.
The binding capacities of the partially phosphorothioated oligonucleotides (the bonds between only all of the nucleotides constituting the consensus sequence in both strands are phosphorothioated, hereinafter also referred to as “PSODN”) of SODNs 7, 8, 9, 16, 17 and 30 of the present invention to the NF-κB (p65 protein) were tested in the same manner as described above.

[5] = molecular target: T2, NF-kB p65 (RelA); assay: competition; primary screen 1.31; settings: protein: extract; tags: TPA and CI-stimulated Jurkat nuclear extract, Active Motif TransAM kit
Description: as §1, §2, §3

[6] = molecular target: T2, NF-kB p65 (RelA); assay: competition; primary screen 2.01; settings: protein: extract; tags: TPA and CI-stimulated Jurkat nuclear extract, Active Motif TransAM kit
Description: as §1, §2, §3

[7] = molecular target: T2, NF-kB p65 (RelA); assay: competition; primary screen 3.06; settings: protein: extract; tags: TPA and CI-stimulated Jurkat nuclear extract, Active Motif TransAM kit
Description: as §1, §2, §3

[8] = molecular target: T2, NF-kB p65 (RelA); assay: competition; primary screen >5; settings: protein: extract; tags: TPA and CI-stimulated Jurkat nuclear extract, Active Motif TransAM kit
Description: as §1, §2, §3

[9] = molecular target: T2, NF-kB p65 (RelA); assay: competition; primary screen 1.37; settings: protein: extract; tags: TPA and CI-stimulated Jurkat nuclear extract, Active Motif TransAM kit
Description: as §1, §2, §3

[10] = molecular target: T2, NF-kB p65 (RelA); assay: competition; primary screen 1.33; settings: protein: extract; tags: TPA and CI-stimulated Jurkat nuclear extract, Active Motif TransAM kit
Description: as §1, §2, §3

[11] = molecular target: T2, NF-kB p65 (RelA); assay: competition; settings: protein: extract; tags: TPA and CI-stimulated Jurkat nuclear extract, Active Motif TransAM kit; remark: listed apart in the source
Description: To study the influence by the phosphorothioation site in the oligonucleotide sequence, decoy oligonucleotides (FSODN) in which only the flanking sequences were phosphorothioated and decoy oligonucleotides (ODN) without phosphorothioation having the same sequences, respectively, were synthesized. The binding inhibition activities were compared under the conditions of common ratio of 3-fold, 6 times, n=2. The binding inhibition tests against NF-κB p65 protein was carried out using NF-κB, p65 TransAM Kit (produced by ACTIVE MOTIF), and using NF-κB protein molecules in the Jurkat, TPA and CI-Stimulated, Nuclear
Extract (produced by ACTIVE MOTIF). The testing method was the same as in the above-described Example 5. The term “only the flanking sequences were phosphorothioated” means that the bonds in the flanking sequences and the bonds between the respective flanking sequences and the core were phosphorothioated. For example, as for Sequence 7, it is CsGsCs[…]sAsGsC. The values for PSODNs are those obtained in the secondary screening (above-described Table 4).

[12] = molecular target: T2, NF-kB p65 (RelA); assay: competition; primary screen 2.23; settings: protein: extract; tags: TPA and CI-stimulated Jurkat nuclear extract, Active Motif TransAM kit
Description: as §1, §2, §3

[13] = molecular target: T2, NF-kB p65 (RelA); assay: competition; ELISA competition with immobilized consensus site; 4.77 in Table 3-2, 4.93 in Table 4; Table 7 lists 4.93, 4.30, 3.24 in PSODN, FSODN, ODN columns; settings: protein: extract; tags: TPA and CI-stimulated Jurkat nuclear extract, Active Motif TransAM kit

| Binder | IC50 [2] [nM] | IC50 [3] [nM] | IC50 [4] [nM] | also measured |
| --- | --- | --- | --- | --- |
| SODN7 (dsDNA, PS all bonds, both strands) DNA 1: CGCGGGATTTCCCAGC DNA 2: GCTGGGAAATCCCGCG |  |  |  | IC50 [1]: 1.75 nM |
| PSODN16 (dsDNA, PS only within consensus gggatttccc, both strands) DNA 1: CGCAGGGATTTCCCGCG DNA 2: CGCGGGAAATCCCTGCG | 2.37 | 0.8 | 0.41 |  |
| PSODN7 (dsDNA, PS only within consensus gggatttccc, both strands) DNA 1: CGCGGGATTTCCCAGC DNA 2: GCTGGGAAATCCCGCG | 3.01 | 1.02 | 0.54 |  |
| SODN6 (dsDNA, PS all bonds, both strands) DNA 1: CGAGGGATTTCCCGGC DNA 2: GCCGGGAAATCCCTCG |  |  |  | IC50 [5]: 2.33 nM |
| SODN17 (dsDNA, PS all bonds, both strands) DNA 1: CCCTGGGATTTCCCGCC DNA 2: GGCGGGAAATCCCAGGG |  |  |  | IC50 [5]: 1.81 nM |
| SODN9 (dsDNA, PS all bonds, both strands) DNA 1: GGAGGGATTTCCCGGG DNA 2: CCCGGGAAATCCCTCC |  |  |  | IC50 [6]: 1.88 nM |
| SODN91 (dsDNA, PS all bonds, both strands) DNA 1: GTAAAATGGGATTTCCCGAG DNA 2: CTCGGGAAATCCCATTTTAC |  |  |  | IC50 [7]: 2.58 nM |
| SODN83 (dsDNA, PS all bonds, both strands) DNA 1: CAAGTAGGGATTTCCCATAC DNA 2: GTATGGGAAATCCCTACTTG |  |  |  | IC50 [8]: 7.33 nM |
| SODN16 (dsDNA, PS all bonds, both strands) DNA 1: CGCAGGGATTTCCCGCG DNA 2: CGCGGGAAATCCCTGCG |  |  |  | IC50 [9]: 1.98 nM |
| SODN30 (dsDNA, PS all bonds, both strands) DNA 1: GGCTGGGATTTCCCGCGG DNA 2: CCGCGGGAAATCCCAGCC |  |  |  | IC50 [10]: 1.87 nM |
| FSODN16 (dsDNA, PS only in flanks and flank-core bonds) DNA 1: CGCAGGGATTTCCCGCG DNA 2: CGCGGGAAATCCCTGCG |  |  |  | IC50 [11]: 1.11 nM |
| PSODN8 (dsDNA, PS only within consensus gggatttccc, both strands) DNA 1: CCCGGGATTTCCCACC DNA 2: GGTGGGAAATCCCGGG | 3.22 | 1.08 | 0.63 |  |
| PSODN17 (dsDNA, PS only within consensus gggatttccc, both strands) DNA 1: CCCTGGGATTTCCCGCC DNA 2: GGCGGGAAATCCCAGGG | 4.29 | 0.91 | 0.48 |  |
| SODN27 (dsDNA, PS all bonds, both strands) DNA 1: CGCAGGGATTTCCCGCGC DNA 2: GCGCGGGAAATCCCTGCG |  |  |  | IC50 [12]: 2.87 nM |
| Control decoy (conventional NF-kB decoy) (dsDNA, PS all bonds, both strands) DNA 1: CCTTGAAGGGATTTCCCTCC DNA 2: GGAGGGAAATCCCTTCAAGG | 8.42 | 8.45 |  | IC50 [13]: 5.26 nM |
| SODN8 (dsDNA, PS all bonds, both strands) DNA 1: CCCGGGATTTCCCACC DNA 2: GGTGGGAAATCCCGGG |  |  |  | IC50 [6]: 2.12 nM |
| PSODN9 (dsDNA, PS only within consensus gggatttccc, both strands) DNA 1: GGAGGGATTTCCCGGG DNA 2: CCCGGGAAATCCCTCC | 1.55 | 0.91 | 0.54 |  |
| PSODN30 (dsDNA, PS only within consensus gggatttccc, both strands) DNA 1: GGCTGGGATTTCCCGCGG DNA 2: CCGCGGGAAATCCCAGCC | 2.11 | 0.69 | 0.48 |  |
